Experiments:
Assay type in all cases: physicochemical
[1] = Dissolution test (USP rotating paddle) of drug-loaded oxidized keratin tablets in simulated gastric fluid; conditions: 500 mg tablets of drug bound to H2O2-oxidized keratin, 37 C
Description: Dissolution tests are performed according to the standard United States Pharmacopoeia (USP) rotating paddle method. In this method, the volume of the dissolution medium is fixed and agitation is provided under defined conditions by the stainless steel paddle. A 1L volume of purified water or simulated gastric fluid (Lot. No. 76H9312, Sigma-Aldrich, St. Louis, Mo.) was used at 37° C.±0.5° C. The temperature of the dissolution medium was maintained at 37° C. by immersing the dissolution flask in a water bath. A cover was used on the system to avoid water loss through evaporation. […]
During the test, small volumes of sample were withdrawn at various time points, for example, every 20 minutes within the first hour (including a 0 time point) and every hour after that for 8 hours. […] High-performance liquid chromatography (HPLC) was performed on the samples and the amount released from the dosage form calculated based on a calibration curve generated from solutions with known concentrations of the compound of interest.
Tablet samples that incorporated the vasoconstrictor norephedrine were prepared by binding the drug to oxidized keratin in an ion exchange step. […] This was accomplished by dissolving a measured amount of norephedrine into ethanol, adding 5 g of oxidized keratin and heating to reflux for 2 hours, followed by stirring at room temperature for 24 hours. […]

[2] = Dissolution test (USP rotating paddle) of albumin from keratin tablets and capsules
Description: Dissolution tests are performed according to the standard United States Pharmacopoeia (USP) rotating paddle method. In this method, the volume of the dissolution medium is fixed and agitation is provided under defined conditions by the stainless steel paddle. A 1L volume of purified water or simulated gastric fluid (Lot. No. 76H9312, Sigma-Aldrich, St. Louis, Mo.) was used at 37° C.±0.5° C. The temperature of the dissolution medium was maintained at 37° C. by immersing the dissolution flask in a water bath. A cover was used on the system to avoid water loss through evaporation. After the temperature equilibrated, the samples were allowed to sink to the bottom of the vessel before rotation of the paddle. Rotation speed was kept constant at 50 rpm.
During the test, small volumes of sample were withdrawn at various time points, for example, every 20 minutes within the first hour (including a 0 time point) and every hour after that for 8 hours. Samples were taken from a precise point in the dissolution flask, halfway between the surface of the dissolution medium and the top of the rotating paddle, and not less than 10 mm from the wall of the vessel. The volume withdrawn during sampling was replaced with an equal volume of media, pre-warmed to 37° C. High-performance liquid chromatography (HPLC) was performed on the samples and the amount released from the dosage form calculated based on a calibration curve generated from solutions with known concentrations of the compound of interest.
Samples containing albumin were made in tablet and capsule forms. Tablets were prepared by co-grinding a mixture of 80/20 dry keratin absorbent powder/bovine albumin. The keratin absorbent powder was prepared as described in Section VI. B supra, and the albumin was purchased from Sigma Chemical Co., St. Louis, Mo. (Lot No. 69H1257, Fraction V, 96% purity). The solid mixture was further homogenized by shaking in a closed container. Samples of 500 mg of the powder mixture were made into tablets using a pellet press at 30,000 psi (400 mg keratin, 100 mg albumin). The dissolution profile of these tablets was measured by the rotating paddle method.
Albumin capsules were prepared by dissolving 2 g of albumin in 200 g of deionized water. The albumin solution was added to 8 g of absorbent keratin powder to form a hydrogel. The hydrogel was thoroughly mixed and poured into petri dishes. The water was removed under vacuum at room temperature. After drying for approximately 36 hours, the resulting solid was ground using a mortar and pestle. 400 mg of the ground keratin/albumin powder (320 mg keratin/80 mg albumin) was placed into each of several two-part gelatin capsules (No. 0, Eli Lilly and Co., Indianapolis, Ind.). The dissolution profile of these tablets was measured using the rotating paddle method.

[3] = Loading of acetaminophen into keratin tablets (tablet disintegrated in water, HPLC); conditions: acetaminophen bound to H2O2-oxidized keratin, 500 mg tablets
Description: Evaluation of the loading of acetaminophen was accomplished by disintegrating a single tablet into a known volume of water over a one week period at room temperature. In addition, that samples were sonicated for 90 minutes prior to sampling. A sample of the solution was withdrawn and analyzed by HPLC.

Row | Compound | time over which bound drug is released [1] [h] | release of albumin, water versus gastric fluid, compared with tablets ([2]; gelatin capsules (320 mg keratin/80 mg albumin, intimately mixed via hydrogel)) | amount of albumin released over an equivalent time period, capsules versus tablets ([2]; gelatin capsules, intimately mixed via hydrogel) | disintegration and release of albumin ([2]; keratin tablets (400 mg keratin, 100 mg albumin, mechanically mixed), purified water, 37 C) | equilibrium amount of albumin released, gastric fluid versus water ([2]; keratin tablets, simulated gastric fluid) | release of albumin ([2]; keratin tablets, simulated gastric fluid, 37 C) | loading level in keratin tablets [3]
1 | CC(N)C(O)c1ccccc1 (centres unmarked) [norephedrine, Phenylpropanolamine] | 2 | – | – | – | – | – | –
2 | albumin: bovine albumin (Sigma, Fraction V, 96% purity) formulated with keratin absorbent powder as tablets or gelatin capsules | – | identical trend | much less material was released | almost immediate and complete | significantly lower | immediate | –
3 | CC(=O)Nc1ccc(O)cc1 [acetaminophen, 4-Acetaminophenol] | 5 | – | – | – | – | – | low
